# Assay results reported in the DeepSol protein solubility set.
# Assay: soluble on expression in E. coli; label from the status in PepcDB or PDB records
row,Sequence,soluble on expression in E. coli
1,MGSDKIHHHHHHEPYSEIIEEDYVPTEADEIALLATTYSQLRFVMDWYGLFDLQEESGDVIVTPTRPNGWDDGGTYKQMHKHTWDNQQGQPQSIWDYCYKGIANANKILKRADEGFFTEESKPKVVAEVKGVRALWYSILCDTHGNIPIQTSFSEEVPVQSTRKQVFDFIINELKEVMPNLPTEVNKSTYGRLTQWGAKCLMARMYLNAGVYTGTPMWNECLEQCNDIINSGLFSLETNYTDIFKTENSGCVETIFAIPYDEVYNEGDNNGPVFGAHMKFLSSNSRKVFNMQTTPWGGSAANPQFINSYDPDDMRLKYTWLQGDQYSPDGVLITTFPNKLPSIYKTDTDDGYRVGKYEIKVGAKSLLSNDFPYFRYTEVLLMKAECLLRLGQNETEAAHIVSQIRERAFRESAHPEKATVDAAWLKGDTHINYGTLDEKGQIDDAGNTEVVELGGLYDEWGWEFAAEARRRTDMIRFGTYQKKSWFNHTPTANDLNGNSILFPIHLDHLNTNPNLQQNPGYAGK,not soluble
2,MGSDKIHHHHHHFDEETAFQSPTLVYVNTVASLYNNMFKIMGNDRHVYDLNTFSSDEAMLPCRIGDWEDGGLWQNIFLHRWGTMNDLTKNSWDFLYEQIGKCNQSVDKLQAFAEEQPDVEYFKVYLEEVRAVRAFFYYELLDLFARVPLVTSSTTPMSEVKQSERSVVFNFVRSELEEALPYLSDNRSNQKGEYYGRITKPVAYMILAKLALNAEVYADDNWTDGNRPAGKNIKFTVDGKEMNAWEATIAYVDKLEALGYKLQGNFSENFAVANETSVENIFTVPMDPVAYPDAKDYNLVRTRHYDHATAYGQSGWNGSCATVKAMNVFKFGTADEDPRCKLTYFTGEVTGPDGKTIYTEWDGQKVPLKYEPNAPKVYMDASDGLLVKTAGARMAKYEFDQNAQDGGNLHGNDCVIFRFADALLMKAEAKIRLGQNGDDEVNQVRNRVGAKPLQNVTLDTLLDERMLELAWEGVRRQDLIRFGKFTEATVDRYVGVKHFASSLDYQEDKTGYTTVFSIYADILSLNPNLTQNPGY,not soluble
3,MGSDKIHHHHHHGCSFLIKEVNVKQENEAGEMVAYIKAGEIATFTFSGEINIDGDASNETFIVGFLAPRSWNVRQNATVTYREDRYETEVDHKMTVIPDTEQPANYKGMSWSAALKKKYGVRGNVLNDMEWIAFKSDNYPSVNGTIHYTVTIKCNSGKSNLKFRPSFFINHSSDGIGGDEAHYSVKDADDCFEVVEGSGTVIDFCSTHYYQIEPLSALQDDYVTFTFQGDINTNELIKAENVYIEATAYTIEGKIYTVNEKSAKTLMKRETKLPRYNVTLWPGGFFNIPDGETISRIEYIFTNEDGTVSISQSDDSRDNEGEEVEEGIKEPFVFEFQCE,not soluble
4,MGSDKIHHHHHHGGFTGAIADFPTAIHRAVKGQMQTTTDYLNGEQTEYDESVFTGEYHYYYEKLSDDDKLIYRQIYAMMQKRMDGISLNTTDTDNVSRIQQFVLLDNPQFFYIEKSQYTVRNSIIFSPVYNMSESDIDNAISTISGYVSACMAGIDEGASDYDKAVHFYEYVIEHAEYEENSPHNQDMYSAVLGRTVCQGYAMMFKYLCDRAGISSLIVTGTTSDANHAWNMVYLDGAWCAVDCTYGDGDYLGKGISYSWFGVPLDVVKLTRTLDNEDMLPQEASVEDDYYYRNGLYFTSYDLKVLQGMTTSSNYITFKFSDRETYDTACHSLFDKGDYKYLIPTARGGTITYMQEPNSLAVFIHIELGS,not soluble
5,MGSDKIHHHHHHIEGPGTTENLKEFVTVDGKKDTQSGAFYLTTVGIRSATIFSAIKANFSDFQEVMSKKELMGDSSNSEYNRIQQYYMDSSKNAAIEQALKLAKVPYEMKFKGVYVLAMEDNSSFKGKIEVGDTVTGVDGKSFKSSEELMNYIKAQKVNQKVTVQFIQDGKAKEATGKLIELPTDKKAGIGIGLTDHTEIDSSIPVSIEAGDIGGPSAGLMFTLQTYEQLSHKDLRKGHEIAGTGTMNSQGIVGRIGGIDKKVVTASENGAEIFFAPDDEITSEMKKVEPKIKSNYQEAQEAAKKIGTKMKIVPVKTVQDALNYLEKLK,not soluble
6,MGSDKIHHHHHHILVKNKIDNEFNWISMKEEQKLNVPIENQMPDLPNGCEVTSLSMLMNYYGIRVTKNELAQNIQHVSSFTNNGKYRGNPNQGFVGYMSIENAGWCVYNGPLYNVARKYTNRIQNATGSDFLSILKLVSDGHPVLIITTTTFNRVNNMQTWETNTGKVNVTPSSHACVITGYDKKKRIVYLNNPYGIKNQAVNWNNLENSYNQQGKQALYIK,not soluble
7,MGSDKIHHHHHHIYWEFTTKNMLVLEFIEGIRIDDLESLNASKHNIKNITEIGTEVFFLQVFRDGFFHGDMHPGNILIDKEGALIPIDFGIMGRLSNKDRQFLALLLTYLLNKNYRKVVEIHDEANMLGKDVSHDHLSQAIRAISTPILNKPIGEVSLAKLLGQILSLSKKFNIEVQPQFTLLQKTMLMAEGTTRQINPNINMWELSRPLIDKWINDTHDPFKVLEEWFHKNKIALLKIPEIINKIDKILS,not soluble
8,MGSDKIHHHHHHKDAAYPRAEAQTLDLAQKAIAIRSVRGEGNRTIDVANLFRDALLKGGWQVGDIEVTPVDDTAYIIATWKGSDPSLKPVVISGHMDVVEAKREDWERDPFVPVVENGILYGRGASDMKFDGALALSTLIELRRQGFKPKRTIVIEFSGDEETTMKTSAIIAEKLKNAELVINVDGGGGTLDEATGKPLYWTWQGAEKTYADYRLEVTNPGGHSSAPRPDNAIVQLSQALVKVGAYRFKAEQNDITRGYFEKAAPFTDRPEIAAAMRAFAANPADEKALATLRADPSMVGKVGTTCVPTMLGGGHAENALPQRAFANINCRIFPGHTKEAIMAELAQVVGDPAVKISDVTEGSVASPASPLRPDLMKAVTRAMTKAYPKVPLIPSQASGASDSMWFRALGVPSYGLSPSFSKDSEDFSHGLNERTRLSNIRPGITYYLTLITDLTK,not soluble
9,MGSDKIHHHHHHLDDLSEFVDQVPLLDHHCHFLIDGKVPNRDDRLAQVSTEADKDYPLADTKNRLAYHGFLALAKEFALDANNPLAAMNDPGYATYNHRIFGHFHFKELLIDTGFVPDDPILDLDQTAELVGIPVKAIYRLETHAEDFMLEHDNFAAWWQAFSNDVKQAKAHGFVGFKSIAAYRVGLHLEPVNVIEAAAGFDTWKHSGEKRLTSKPLIDYMLYHVAPFIIAQDMPLQFHVGYGDADTDMYLGNPLLMRDYLKAFTKKGLKVVLLHCYPYHREAGYLASVFPNLYFDISLLDNLGPSGASRVFNEAVELAPYTRILFASDASTYPEMYGLAARQFKQALVAHFNQLPFVDLAQKKAWINAICWQTSAKLYHQERELRV,not soluble
10,MGSDKIHHHHHHLETSPSSSVSGNELLGTATNALVSLNGVYRAMYTAGVSNSSNTHQCFGITAYNLVADVMGEDCIMNGQGSGWFWYDCVYNVKSRYTSTGWRSYDMWNGYYTWISNVNYILAEEETMSGSETEKNYVLGQAYAVRAYSYFMLAQMFSRTYKGHESEPCVPLYTEPTDIATEGKGRATIEEVYQQITSDLDKAITMLGNSGKRKHISHINEAVASGIKARVALVMEDWQTALDAANAAISKSGCSVGTGTAVTGGMNDATANNVMWAAEIIADQSGMYAGFFTHMDADQGKYGASARKQINKLLYAKLGTNDVRKKWWNPQDENNEKNGYQQEKFKFKDYAKWTGDYIFMRIEEMFLTAAEASCRLNDDKGARLMLNSLMQKRDEDYTCKKTGTALGKLTSDETGSLLEEIIIQRRIELWGEFGRIYDIRRLKQGFRRTADMGWPSSALIAGTDTEDPESYAWVLTIPQTEFDGNPNMDPSKDQNPIGDHK,not soluble
11,MGSDKIHHHHHHLLLEQTNFRKEVNNIKIFNERNMNNLEYIIPECYADITNIYNNVIVMENIKGLTYNDVKDLDIEKKDIFGKLLMKFGLISILYTSAVHCDIHPGNLFFYINEDVKDKPKYQLGLIDFGIVSFPNRENQNFYYTFFKNIQIDKDFSKLEDVLRCILCEKDKFKNLDTIKKRLLKETIERNIIETDNKYDLDFFLKLSYTINVYGFTFTKEFNQICLSLQVVENLLKNLLLDIRKTQDEIIETFNNINKLIT,not soluble
12,MGSDKIHHHHHHLPALRLLAGPTAYEQLEANGLDQSLFTQLFAASGGPKWLAIAGLDKYLFSEFFQDREDPLYTMGASSGAWRLACMAQQDPLAAYERLEHFYIHQNYEKKPTREQVSAQVLQIVDGILGEQQGADIIANPLIRHHMVACRARHLNRIHAKFGLMMGLSMAAVSNVVNRKSLGWHFERVILSHKDAASPFRRLKDLPTKHVELTQDNIRHGLLATGSIPLLLDPVKDLQGSPKGHYYDGGITDYHFDMPLPAATGLSLYPHFYPYMSPGWFDKSLLWRKAKANYHNGLILAPSKQFIASLPFSKIPDREDFKNLDTKSRITYWQQSVQQSQVLADEFAEIVASGTIMDRIERL,not soluble
13,MGSDKIHHHHHHLTLRVAVIGSGPAGSSAAETLAASGIETYLFERKLDNAKPCGGAIPLCMVSEFDLPPEIIDRRVRKMKMISPSNREVDINLINEDEYIGMCRREVLDGFLRDRAAKLGANLINATVHKLDIPGNNTDPYTIHYVDHTEGISQGIAKTLKVDLIIGADGANSRVAKEMDAGDYNYAIAFQERIRLPEDKMAYYNDLAEMYVGDDVSTDFYAWVFPKYDHVAVGTGTMHINKASIKQLQAGIRARASEKLAGGKIIKVEAHPIPEHPRPRRVVGRIALVGDAAGYVTKSSGEGIYFAAKSGRMCAETIVEASNSGSRIPTEGDLKIYLKRWDKRYGLTYKVLDILQSVFYRSDATREAFVEMCDDLDVQRLTFDSYLYKTVVPANPITQLKITAKTIGSLIRGNALAP,not soluble
14,MGSDKIHHHHHHMAAQNAFEQKKRAILNEIDSTQPDLSPKGTIDELCLPIIDLINASADMVTTSSCSGRVSVFLEGTKSYNGEVKIGGKGQGGKWLYVTHDREKVIGWLDELKSKSEFSFELSGKEIPTEKVTGSIRYILYKYEPFILHVKCRDFQAASKLYNTAMSCGFRESGIGSNNLVAIRINIKLDVPLGYLDETSGTLKFFVTPEYVSVLDSLSLSKFDENTRKMQALYDRIEKELINCAPDVNSKVNITPIETKEERRERKKREGMERQRQLKSPQNVL,not soluble
15,MGSDKIHHHHHHMADGGSERADGRIVKMEVDYSATVDQRLPECAKLAKEGRLQEVIETLLSLEKQTRTASDMVSTSRILVAVVKMCYEAKEWDLLNENIMLLSKRRSQLKQAVAKMVQQCCTYVEEITDLPIKLRLIDTLRMVTEGKIYVEIERARLTKTLATIKEQNGDVKEAASILQELQVETYGSMEKKERVEFILEQMRLCLAVKDYIRTQIISKKINTKFFQEENTEKLKLKYYNLMIQLDQHEGSYLSICKHYRAIYDTPCIQAESEKWQQALKSVVLYVILAPFDNEQSDLVHRISGDKKLEEIPKYKDLLKLFTTMELMRWSTLVEDYGMELRKGSLESPATDVFGSTEEGEKRWKDLKNRVVEHNIRIMAKYYTRITMKRMAQLLDLSVDESEAFLSNLVVNKTIFAKVDRLAGIINFQRPKDPNNLLNDWSQKLNSLMSLVNKTTHLIAKEEMIHNLQ,not soluble
16,MGSDKIHHHHHHMADISIEQSMQLFELQPGKSLDLQINNPVSLRLKLPLIGYELGKYIILKYPKSANTSEYKDVLIEGNVLIVRYLMEGNKGECFAFRSSIKNITQYPEKFIFIEYPNKIENRQLRLQQRTSIHLPAIIMLESSGDNKKTQINGIIGDISAKGCGFTFKTKSTSTKVNKRDIFVCLRSPIDGEVQIPARVCNSRNDNGTVNVGIQFIDNEKLVPKLLSELFIENTMS,not soluble
17,MGSDKIHHHHHHMAELIFSRETDCRYCYKCLRNCPVKAISFKSGKSTVLEEECVFCGSCLDICPQNARSYRKDVERFLSLSEPFLVSIAPSFFAYFENPLKVIGVLKEMGAVVVQETAVGAEIVSRRYEEVFEKHSGPFITTACPVVVNLAEKHFPNVLKYFAPVDSPLMTHAKFLKTRYGDFPIVFVGPCIAKKSESDLVDVALTFEELEEILEEREGKEALPDGPYPDRARFYPTTDGIGYTVSVPWEKKLVVEGVENLMRVFSRIDEYKSVFIEASACYGSCLNGPVMKKKSNGKERLLEWQKKLPKEPK,not soluble
